Data from patent US6730503B1 (Roche Vitamins Inc., priority 1996, dated 2004).
Values joined by “and” are separate entries in the source; they are usually repeats but may differ in a detail not shown here. Equal entries are not always repeated. “Also recorded” adds a separate entry of the source.

Legend:
Format in all cases: biochemical
[1] = Products of enzyme reactions with purified enzymes, identified by TLC and/or HPLC
Method: Products formed from a substrate in the reaction with Enzyme A, Enzyme A′, Enzyme A″ or Enzyme B were analyzed by thin layer chromatography (TLC) and/or high performance liquid chromatography (HPLC) with authentic compounds. […] Similarly to the reactivity for L-sorbosone, D-glucosone can be converted to 2KD by all of above mentioned AADHs. A group enzymes can produce 2KD from D-fructose whose possible direct product is D-glucosone. […]
Enzyme reactions with purified Enzyme A or Enzyme B and various substrates were performed as described in Example 11.

[2] = Optimal pH, PMS-DCIP assay in buffers of various pH
Method: The Enzymes A″ and B have a relatively wide pH range toward a lower pH, compared with the Enzymes A and A′.
The enzyme activity was assayed by the PMS-DCIP spectrophotometric assay using various pH buffers. The buffers were 50 mM Tris-malate-NaOH, pH 6.0, 6.5, 7.0, 7.5, 8.0 and 8.5; 50 mM glycine-NaOH, pH 9.0 and 9.5. The extinction coefficients of DCIP at pH 6.0, 6.5, 7.0, 7.5, 8.0, 8.5, 9.0 and 9.5 were taken as 10.8, 13.2, 14.5, 14.9, 15.0, 15.1, 15.1 and 15.1, respectively. […] The Enzymes A″ and B had relatively wide pH range toward lower pH, compared with the Enzymes A and A′.

[3] = Product assay with Enzyme sA2 and Enzyme A
[4] = 2KGA production by purified recombinant AADH in a reaction mixture; details: 1.7 mg/ml enzyme, 4% L-sorbose, 30° C., 20 hours; TLC assay
From the text: As a result, about 2 g/l 2KGA (TLC assay) was produced. […]

B1: Enzyme A′: recombinant AADH of G. oxydans DSM No. 4025, amino acid sequence SEQ ID NO 6, plasmid p1E2 (protein)
chain: MKTSSLLVASVAALASYSSFALAQVTPVTDELLANPPAGEWISYGQNQENYRHSPLTQITTENVGQLQLVWARGMQPGKVQVTPLIHDGVMYLANPGDVIQAIDAKTGDLIWEHRRQLPNIATLNSFGEPTRGMALYGTNVYFVSWDNHLVALDTATGQVTFDVDRGQGEDMVSNSSGPIVANGVIVAGSTCQYSPFGCFVSGHDSATGEELWRNYFIPRAGEEGDETWGNDYEARWMTGVWGQITYDPVGGLVHYGSSAVGPASETQRGTTGGTMYGTNTRFAVRPETGEIVWRHQTLPRDNWDQECTFEMMVANVDVQPAADMDGVRSINPNAATGERRVLTGVPCKTGTMWQFDAETGEFLWARDTSYENIIESIDENGIVTVDESKVLTELDTPYDVCPLLLGGRDWPSAALNPDTGIYFIPLNNTCMDIEAVDQEFSSLDVYNQSLTAKMAPGKELVGRIDAIDISTGRTLWTAEREASNYAPVLSTAGGVLFNGGTDRYFRALSQETGETLWQTRLATVASGQAVSYEIDGVQYIAIGGGGTTYGSFHNRPLAEPVDSTAIGNAMYVFALPQQ
modifications: Gluconobacter oxydans; SIGNAL (1)..(23)
Product ([1]; substrate D-Fructose): 2-keto-D-gluconic acid
Product ([1]; substrate D-Mannitol): D-mannose
Product ([1]; substrate D-Sorbitol): D-glucose with L-gulose
Product ([1]; substrate L-Sorbose): L-sorbosone with 2KGA
Product ([1]; substrate L-Sorbosone): 2KGA
Relative activity (optimal pH) ([2]; assay pH 6.0, pH 8.0 = 100): 2.1%
Relative activity (optimal pH) ([2]; assay pH 6.5, pH 8.0 = 100): 9.3%
Relative activity (optimal pH) ([2]; assay pH 7.0, pH 8.0 = 100): 22.5%
Relative activity (optimal pH) ([2]; assay pH 7.5, pH 8.0 = 100): 46.8%
Relative activity (optimal pH) ([2]; assay pH 8.0): 100.0%
Relative activity (optimal pH) ([2]; assay pH 8.5, pH 8.0 = 100): 142.7%
Relative activity (optimal pH) ([2]; assay pH 9.0, pH 8.0 = 100): 2.1%
Relative activity (optimal pH) ([2]; assay pH 9.5, pH 8.0 = 100): 1.8%

B2: Enzyme A″: recombinant AADH of G. oxydans DSM No. 4025, amino acid sequence SEQ ID NO 7, plasmid p26C3 (protein)
chain: MKLTTLLQSSAALLVLGTIPALAQTAITDEMLANPPAGEWINYGQNQENYRHSPLTQITADNVGQLQLVWARGMEAGKIQVTPLVHDGVMYLANPGDVIQAIDAATGDLIWEHRRQLPNIATLNSFGEPTRGMALYGTNVYFVSWDNHLVALDTSTGQVVFDVDRGQGTDMVSNSSGPIVANGVIVAGSTCQYSPFGCFVSGHDSATGEELWRNTFIPRAGEEGDETWGNDYEARWMTGVWGQITYDPVGGLVHYGTSAVGPAAEIQRGTVGGSMYGTNTRFAVRPETGEIVWRHQTLPRDNWDQECTFEMMVVNVDVQPSAEMEGLHAINPDAATGERRVVTGVPCKNGTMWQFDAETGEFLWARDTSYQNLIESVDPDGLVHVNEDLVVTELEVAYEICPTFLGGRDWPSAALNPDTGIYFIPLNNACSGMTAVDQEFSSLDVYNVSLDYKLSPGSENMGRIDAIDISTGRTLWSAERYASNYAPVLSTGGGVLFNGGTDRYFRALSQETGETLWQTRLATVASGQAISYEIDGVQYVAIGRGGTSYGSNHNRALTERIDSTAIGSAIYVFALPQQ
modifications: Gluconobacter oxydans; SIGNAL (1)..(23)
Product ([1]; substrate D-Fructose): 2-keto-D-gluconic acid
Product ([1]; substrate D-Mannitol): D-mannose
Product ([1]; substrate D-Sorbitol): D-glucose with L-gulose
Product ([1]; substrate L-Sorbose): L-sorbosone with 2KGA
Product ([1]; substrate L-Sorbosone): 2KGA
Relative activity (optimal pH) ([2]; assay pH 6.0, pH 8.0 = 100): 35.0%
Relative activity (optimal pH) ([2]; assay pH 6.5, pH 8.0 = 100): 57.3%
Relative activity (optimal pH) ([2]; assay pH 7.0, pH 8.0 = 100): 74.8%
Relative activity (optimal pH) ([2]; assay pH 7.5, pH 8.0 = 100): 90.0%
Relative activity (optimal pH) ([2]; assay pH 8.0): 100.0%
Relative activity (optimal pH) ([2]; assay pH 8.5, pH 8.0 = 100): 85.6%
Relative activity (optimal pH) ([2]; assay pH 9.0, pH 8.0 = 100): 46.5%
Relative activity (optimal pH) ([2]; assay pH 9.5, pH 8.0 = 100): 23.9%

B3: Enzyme A: recombinant AADH of G. oxydans DSM No. 4025, amino acid sequence SEQ ID NO 5, plasmid p24D4/pSSA102R (protein)
chain: MKPTSLLWASAGALALLAAPAFAQVTPVTDELLANPPAGEWISYGQNQENYRHSPLTQITTENVGQLQLVWARGMQPGKVQVTPLIHDGVMYLANPGDVIQAIDAKTGDLIWEHRRQLPNIATLNSFGEPTRGMALYGTNVYFVSWDNHLVALDTATGQVTFDVDRGQGEDMVSNSSGPIVANGVIVAGSTCQYSPFGCFVSGHDSATGEELWRNYFIPRAGEEGDETWGNDYEARWMTGAWGQITYDPVTNLVHYGSTAVGPASETQRGTPGGTLYGTNTRFAVRPDTGEIVWRHQTLPRDNWDQECTFEMMVTNVDVQPSTEMEGLQSINPNAATGERRVLTGVPCKTGTMWQFDAETGEFLWARDTNYQNMIESIDENGIVTVNEDAILKELDVEYDVCPTFLGGRDWPSAALNPDSGIYFIPLNNVCYDMMAVDQEFTSMDVYNTSNVTKLPPGKDMIGRIDAIDISTGRTLWSVERAAANYSPVLSTGGGVLFNGGTDRYFRALSQETGETLWQTRLATVASGQAISYEVDGMQYVAIAGGGVSYGSGLNSALAGERVDSTAIGNAVYVFALPQ
modifications: Gluconobacter oxydans; SIGNAL (1)..(23)
Product ([1]; substrate D-Mannitol): D-Mannose
Product ([1]; substrate D-Sorbitol): D-glucose with L-gulose
Product ([1]; substrate L-Sorbose): L-sorbosone with 2KGA
Product ([1]; substrate L-Sorbosone): 2KGA
Relative activity (optimal pH) ([2]; assay pH 6.0, pH 8.0 = 100): 6.5%
Relative activity (optimal pH) ([2]; assay pH 6.5, pH 8.0 = 100): 13.0%
Relative activity (optimal pH) ([2]; assay pH 7.0, pH 8.0 = 100): 33.1%
Relative activity (optimal pH) ([2]; assay pH 7.5, pH 8.0 = 100): 57.7%
Relative activity (optimal pH) ([2]; assay pH 8.0): 100.0%
Relative activity (optimal pH) ([2]; assay pH 8.5, pH 8.0 = 100): 113.2%
Relative activity (optimal pH) ([2]; assay pH 9.0, pH 8.0 = 100): 50.0%
Relative activity (optimal pH) ([2]; assay pH 9.5, pH 8.0 = 100): 19.6%
Products from D-sorbitol in product assay [3]: D-glucose only
Products from L-sorbose in product assay [3]: 2KGA
2KGA produced [4]: about 2 g/l

B4: Enzyme B: recombinant AADH of G. oxydans DSM No. 4025, amino acid sequence SEQ ID NO 8, plasmid pSS31/pSSB103R (protein)
chain: MNPTTLLRTSAAVLLLTAPAAFAQVTPITDELLANPPAGEWINYGRNQENYRHSPLTQITADNVGQLQLVWARGMEAGAVQVTPMIHDGVMYLANPGDVIQALDAQTGDLIWEHRRQLPAVATLNAQGDRKRGVALYGTSLYFSSWDNHLIALDMETGQVVFDVERGSGEDGLTSNTTGPIVANGVIVAGSTCQYSPYGCFISGHDSATGEELWRNHFIPQPGEEGDETWGNDFEARWMTGVWGQITYDPVTNLVFYGSTGVGPASETQRGTPGGTLYGTNTRFAVRPDTGEIVWRHQTLPRDNWDQECTFEMMVANVDVQPSAEMEGLRAINPNAATGERRVLTGAPCKTGTMWSFDAASGEFLWARDTNYTNMIASIDETGLVTVNEDAVLKELDVEYDVCPTFLGGRDWSSAALNPDTGIYFLPLNNACYDIMAVDQEFSALDVYNTSATAKLAPGFENMGRIDAIDISTGRTLWSAERPAANYSPVLSTAGGVVFNGGTDRYFRALSQETGETLWQARLATVATGQAISYELDGVQYIAIGAGGLTYGTQLNAPLAEAIDSTSVGNAIYVFALPQ
modifications: Gluconobacter oxydans; SIGNAL (1)..(23)
Product ([1]; substrate D-Gluconic acid): 5-keto-D-gluconic acid and 5-Keto-D-gluconic acid
Product ([1]; substrate D-Glucose): D-gluconate; also recorded: D-Gluconic acid
Product ([1]; substrate D-Mannitol): D-Fructose
Product ([1]; substrate D-Mannoic acid): 5-keto-D-mannoic acid and 5-Keto-D-mannoic acid
Product ([1]; substrate D-Sorbitol): L-Sorbose
Product ([1]; substrate Glycerol): Dihydroxyacetone
Product ([1]; substrate L-Idose): L-Idonic acid
Product ([1]; substrate L-Sorbosone): 2KGA
Relative activity (optimal pH) ([2]; assay pH 6.0, pH 8.0 = 100): 21.0%
Relative activity (optimal pH) ([2]; assay pH 6.5, pH 8.0 = 100): 51.6%
Relative activity (optimal pH) ([2]; assay pH 7.0, pH 8.0 = 100): 61.6%
Relative activity (optimal pH) ([2]; assay pH 7.5, pH 8.0 = 100): 75.3%
Relative activity (optimal pH) ([2]; assay pH 8.0): 100.0%
Relative activity (optimal pH) ([2]; assay pH 8.5, pH 8.0 = 100): 62.2%
Relative activity (optimal pH) ([2]; assay pH 9.0, pH 8.0 = 100): 8.0%
Relative activity (optimal pH) ([2]; assay pH 9.5, pH 8.0 = 100): 0.0%
